The values that follow come from paper PMC10644982, “Targeting amyotrophic lateral sclerosis by neutralizing seeding-competent TDP-43 in CSF” (Brain Communications, 2023).

This series deals with the molecule itself. The series is described as follows: thioflavin T aggregation kinetics + electron microscopy; synthetic substrate peptide alone at a range of concentrations, seed-free or seeded with the final product of the 15 µM reaction; 40 mM Tris-HCl, 5 mM DTT, 0.002% SDS, 50 µM ThT, 40°C, intermittent shaking; fibrils seen by negative-stain transmission electron microscopy.

B1: TDP-43 peptide (352–414) (peptide)
peptide: NNQNQGNMQREPNQAFGSGNNSYSGSNSGAAIGWGSASNAGSGSGFNGGFGSSMDSKSSGWGM
notes: free N- and C-termini (H- ... -OH); also called assay substrate; SAA substrate
With B1, the binding result is listed as “binds”.
